Experiment [1] has as its target WipA411 (WipA 33-411) (Legionella pneumophila) (UniProt Q5ZS02). The experiment is described as follows: SEC-MALS.
In experiment [2] the target is WipA (IcmW-interacting protein A; lpg2718), full-length protein (Legionella pneumophila) (UniProt Q5ZS02). The experiment in a line: SEC-MALS.

The term stoichiometry N denotes a count of units in the complex or per binding partner. In experiment [1], “WipA411 (WipA 33-411) (from UniProt Q5ZS02 33-411) (domain or fragment)” showed a stoichiometry N of 2.

“WipA (IcmW-interacting protein A; lpg2718), full-length protein (from UniProt Q5ZS02 1-520) (enzyme)” showed a stoichiometry N in experiment [2] of 2.
